From PMC10470860

Key:
[1] = tested on: RFTS-containing DNMT1 A554V (human); assay: fluorescence polarization; settings: 5-methylcytosine on one strand (hemimethylated), 100 nM DNA, 28 °C, triplicate, hyperbolic fit, buffer, salt and pH not given (as in ref [25])
[2] = tested on: RFTS-containing DNMT1 wild-type (human); assay: fluorescence polarization; settings: 5-methylcytosine on one strand (hemimethylated), 100 nM DNA, 28 °C, triplicate, hyperbolic fit, buffer, salt and pH not given (as in ref [25])

**Q.** What does the source list for 18 bp hemimethylated duplex DNA?
**A.** Kd [1]: 550 nM; Kd [2]: 4600 nM
